From patent US8975044B2, “Polynucleotides encoding for frizzled-binding agents and uses thereof” (OncoMed Pharmaceuticals, Inc., priority 2008, dated 2015)

Assays:
[1] = biological target: T1, FZD8 (Homo sapiens, UniProt Q9H461); assay: Biacore affinity to recombinant Fzd Fc protein; format: binding; settings: IgG antibody; Fzd Fc immobilized on CM5 Biacore chip
T1 construct: Fc
T1 sequence (Q9H461 28-157 limits assumed): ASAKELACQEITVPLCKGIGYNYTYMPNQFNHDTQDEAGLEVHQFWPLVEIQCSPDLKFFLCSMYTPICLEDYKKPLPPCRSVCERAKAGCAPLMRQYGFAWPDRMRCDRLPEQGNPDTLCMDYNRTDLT
Protocol: The KDs of 18R8 and 18R5 antibodies were determined using the Biacore 2000 system from Biacore Lifescience (GE Healthcare). Specifically, purified anti-Fzd7 antibodies were serially diluted in 2-fold increments from 100 to 0.78 nM in HBS-P (0.01 M HEPES pH 7.4, 0.15 M NaCl, 0.005% v/v Surfactant P20). Each dilution was tested against recombinant Fzd Fc proteins immobilized onto a CM5 Biacore chip. The association and dissociation rates were measured and KD values determined using the Biaevaluation software program (Table 5, below).

[2] = test system: Cytokeratin 7; assay: Cytokeratin 7 immunohistochemistry on treated C28 tumors; format: in vivo, Nod-Scid mice; settings: tumors harvested after treatment, 15 mg/kg twice per week
Protocol: Following treatment of the animals in the experiment shown in FIG. 58, tumors were harvested, fixed in formalin, embedded in paraffin, and cut in 5 micron sections. Tumor sections were analyzed for Cytokeratin 7 expression, a marker of colon cell differentiation, by immunohistochemistry (Vectastain kit, Vector Labs). Cytokeratin 7 expression was seen to be elevated after treatment with 44R24 or 18R5 (FIG. 59).

[3] = test system: Axin2; assay: Axin2 mRNA level in A549 cells by qPCR; format: cell-based, human; settings: 5-0.008 μg/ml, 24 hours, relative to LZ1 control
Protocol: A549 cells are human lung carcinoma cells in which the Axin2 gene is highly expressed, translating endogenous activity of Wnt signaling. Axin2 is a well know Wnt target gene that responds to activation of the pathway by up-regulating its transcription and eventually down-regulating Wnt signaling through a feed-back loop mechanism. This system was used to test the impact of the anti-Fzd Abs on Axin2 mRNA levels by qPCR.
12-well plates were seeded with 30,000 A549 cells per well and grown for 3 days in DMEM+10% FBS. Antibodies were added at varying concentrations (5 1, 0.2, 0.04, 0.008 μg/ml) for 24 hours and total RNA was extracted from the cells. LZ1, a nonbinding antibody, was used as negative control at only the highest concentration.
30,000 A549 cells were seeded into 12-well plates and grown for 3 days in DMEM+10% FBS. Anti-FZD antibody 18R5 or 44R24 were added at varying concentrations (5, 1, 0.2, 0.04, 0.008 ug/ml), and LZ1, a nonbinding antibody, was used as a negative control at only the highest concentration. RNA was made 24 hours post treatment and then treated with Dnase.
Axin2 is known to be a robust target gene in Wnt signaling and its expression level was examined by doing a Taqman relative expression (ΔΔCT) assay using an Applied Biosystems 7900 HT machine. 50 ng of RNA was used per point in triplicate and a GUSB probe was used for endogenous control. […]

[4] = biological target: T2, FZD8 (Homo sapiens, UniProt Q9H461, E68Q/V69L); assay: Epitope mapping by FACS on FZD8 Fri domain variants on HEK293 cells; format: binding; settings: amino acids 68-69 mutated from EV to QL
T2 construct: N-terminus of the Fri domain of FZD8 in turn fused to the transmembrane domain and intracellular domain of CD4 protein; expressed in transfected cells; host or cells: HEK293
T2 sequence (Q9H461 28-158 E68Q/V69L): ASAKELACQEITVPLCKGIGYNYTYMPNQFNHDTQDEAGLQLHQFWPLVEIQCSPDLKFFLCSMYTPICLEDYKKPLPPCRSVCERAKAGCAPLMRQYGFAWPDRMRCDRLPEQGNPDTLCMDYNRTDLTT
Protocol: To identify the FZD epitope recognized by the 18R8 IgG antibody, epitope mapping was performed. Flow cytometry analysis of cell surface expressed FZD was utilized to measure antibody binding. Mammalian expression plasmid vectors comprising a CMV promoter upstream of polynucleotides that encode an N-terminal signal sequence FLAG epitope tag fused to the N-terminus of the Fri domain of FZD8 in turn fused to the transmembrane domain and intracellular domain of CD4 protein were generated by standard recombinant technology. This expression construct allows expression of the FZD8 Fri domain on the cell surface, as well as expression of a FLAG epitope tag to monitor expression. Site-direct mutagenesis was then used to modify selected amino acids within the extracellular domain of FZD. HEK293 cells were co-transfected with expression vectors encoding the FZD and the transfection marker GFP. Forty-eight hours post-transfection, cells were collected in suspension and incubated on ice with anti-FZD antibody or control IgG to detect background antibody binding. The cells were washed and primary antibodies detected with anti-antibody secondary antibodies conjugated to a fluorescent chromophore. Labeled cells were then analyzed by flow cytometry to measure the binding of anti-FZD antibody to cell surface FZD.
Epitope mapping for the anti-FZD antibody 44R24 was performed in a manner similar to that described above in Example 5 for the antibodies 18R8 and 18R5. The ability of 44R24 to bind to a similar epitope as 18R8 was assessed by flow cytometry using a series of amino acid variants of FZD8 previously shown to disrupt binding of 18R8 (see Example 5 and FIGS. 6 and 7).

[5] = test system: Wnt target genes; assay: qPCR of Wnt target genes in tumor of OMP-PN13-bearing mice; format: in vivo, NOD/SCID mice
Protocol: Frozen OMP-PN13 tumor cells that have been passaged twice in mice were obtained from Oncomed's tumor bank. They were thawed and injected subcutaneously into the left flank of NOD/SCID mice immediately following thawing. ˜ 25,000 viable cells were injected per animal. The mice were monitored weekly for tumor growth. After their onset, the size of the tumors was measured once weekly by caliper. 200-300 mm^3 tumor-bearing mice were dispatched in treatment groups that each contained 5 animals. […] Ab treatment was initiated the day after randomization. LZ1 was used as the negative control Ab. 3 doses of 10 mg/kg of Ab were administered via intra-peritoneal injection over a 12-day period. Mice were euthanized 24 hours after the last injection. Tumor, duodenum and liver were harvested.
Total RNAs were also extracted from tumor, duodenum and liver for Wnt target gene expression analyses using qPCR.
Tissues were immediately transferred into RNAlater (QIAGEN) at the time of harvest. RNA was extracted using the QIAGEN RNeasy for Fibrous Tissue mini kit according to the manufacturer instructions. […] All 5 tumors of each treatment group were analyzed. […] ABI SDS 2.2.1 software was used to analyze the data and calculate DeltaCt values that were converted into relative quantities. […] Fold inhibition factors were then calculated relative to control antibody (LZ1).

Row | Molecule | Kd [1] | Cytokeratin 7 expression [2] | inhibition of basal level of axin2 gene expression [3] | binding to FZD8 variant [4] | inhibition of Wnt target gene in tumor ([5]; relative to LZ1) | tumor Axin2 ([5]; fold relative to control antibody LZ1, 3 doses of 10 mg/kg over 12 days)
1 | 18R5: human anti-FZD antibody; VH SEQ ID NO:10 (as 18R8), VL SEQ ID NO:14; binds FZD1, 2, 5, 7, 8 (antibody, V domains shown, 18R5/18R8 heavy chain variable region (VH); 18R5 light chain variable region (VL)) VH: EVQLVESGGGLVQPGGSLRLSCAASGFTFSHYTLSWVRQAPGKGLEWVSVISGDGSYTYYADSVKGRFTISSDNSKNTLYLQMNSLRAEDTAVYYCARNFIKYVFANWGQGTLVTVSS VL: DIELTQPPSVSVAPGQTARISCSGDNIGSFYVHWYQQKPGQAPVLVIYDKSNRPSGIPERFSGSNSGNTATLTISGTQAEDEADYYCQSYANTLSLVFGGGTKLTVLG | 5.8 nM | elevated | inhibit Axin2 basal levels | reduced staining | 2.3 × | 
2 | 18R8: human anti-FZD antibody from phage display; VH SEQ ID NO:10, VL SEQ ID NO:12; binds FZD1, 2, 5, 7, 8 (antibody, V domains shown, 18R5/18R8 heavy chain variable region (VH); 18R8 light chain variable region (VL)) VH: EVQLVESGGGLVQPGGSLRLSCAASGFTFSHYTLSWVRQAPGKGLEWVSVISGDGSYTYYADSVKGRFTISSDNSKNTLYLQMNSLRAEDTAVYYCARNFIKYVFANWGQGTLVTVSS VL: DIELTQPPSVSVAPGQTARISCSGDKLGKKYASWYQQKPGQAPVLVIYEKDNRPSGIPERFSGSNSGNTATLTISGTQAEDEADYYCSSFAGNSLEVFGGGTKLTVLG | 29.3 nM |  |  | similarly lost |  | 
3 | 44R24: anti-FZD5/8 IgG antibody, VH SEQ ID NO:85, VL SEQ ID NO:86; ATCC deposit no. PTA-10311 (antibody, V domains shown, 44R24 VH; 44R24 VL, ATCC deposit no; PTA-10311) VH: EVQLVESGGGLVQPGGSLRLSCAASGFTFSSYYITWVRQAPGKGLEWVSTISYSSSNTYYADSVKGRFTISRDNSKNTLYLQMNSLRAEDTAVYYCARSIVFDYWGQGTLVTVSS VL: DIELTQPPSVSVAPGQTARISCSGDALGNRYVYWYQQKPGQAPVLVIPSGIPERFSGSNSGNTATLTISGTQAEDEADYYCGSWDTRPYPKYVFGGGTKLTVLG |  | elevated | inhibit Axin2 basal levels |  |  | −1.8x
